Test results from the Immune Epitope Database (IEDB).

Legend:
HLA-A*29:02 [1] = assay: IEDB peptide-MHC binding, purified MHC/competitive/fluorescence; filed as Kd, often an IC50 or EC50 that approximates it; ≥ and ≤ were set here for values at or beyond the usual limits of such assays
HLA-B*53:01 = assay: IEDB peptide-MHC binding, purified MHC/competitive/radioactivity; filed as Kd, often an IC50 or EC50 that approximates it; ≥ and ≤ were set here for values at or beyond the usual limits of such assays; conditions: source organism: Dengue virus 1 Brazil/97-11/1997
HLA-B*57:01 [2] = assay: as above
HLA-A*02:06 = assay: as above
HLA-A*02:01 [3] = assay: as above
HLA-A*02:17 = assay: as above
HLA-A*02:03 [4] = assay: as above
HLA-A*68:02 [5] = assay: as above
HLA-A*68:02 [6] = assay: IEDB peptide-MHC binding, purified MHC/competitive/fluorescence; filed as Kd, often an IC50 or EC50 that approximates it; ≥ and ≤ were set here for values at or beyond the usual limits of such assays; conditions: source organism: Rickettsia sibirica 246
HLA-A*01:01 = assay: as above
HLA-A*24:03 [7] = assay: as above
HLA-B*15:17 = assay: IEDB peptide-MHC binding, purified MHC/direct/fluorescence; filed as Kd, often an IC50 or EC50 that approximates it; ≥ and ≤ were set here for values at or beyond the usual limits of such assays; conditions: source organism: West Nile virus
HLA-A*02:19 = assay: as above
HLA-A*03:01 = assay: as above
HLA-A*02:03 [8] = assay: as above
HLA-A*02:11 = assay: as above
HLA-A*02:12 = assay: as above
HLA-A*29:02 [9] = assay: as above
HLA-A*02:16 = assay: as above
HLA-A*26:01 [10] = assay: IEDB peptide-MHC binding, purified MHC/competitive/fluorescence; filed as Kd, often an IC50 or EC50 that approximates it; ≥ and ≤ were set here for values at or beyond the usual limits of such assays
HLA-B*18:01 = assay: as above
HLA-A*69:01 = assay: as above; conditions: source organism: Orthohantavirus andesense
HLA-B*39:01 = assay: as above
HLA-B*51:01 = assay: as above
HLA-B*57:01 [11] = assay: as above
HLA-B*46:01 = assay: as above
HLA-A*02:01 [12] = assay: as above; conditions: source organism: Orthohantavirus andesense
HLA-B*27:03 = assay: as above
HLA-A*32:01 = assay: IEDB peptide-MHC binding, purified MHC/competitive/radioactivity; filed as Kd, often an IC50 or EC50 that approximates it; ≥ and ≤ were set here for values at or beyond the usual limits of such assays; conditions: source organism: Dengue virus 1 Brazil/97-11/1997
HLA-B*40:01 = assay: IEDB peptide-MHC binding, purified MHC/direct/fluorescence; filed as Kd, often an IC50 or EC50 that approximates it; ≥ and ≤ were set here for values at or beyond the usual limits of such assays; conditions: source organism: Orthohantavirus puumalaense
HLA-A*24:03 [13] = assay: as above
HLA-B*15:01 = assay: IEDB peptide-MHC binding, purified MHC/competitive/fluorescence; filed as Kd, often an IC50 or EC50 that approximates it; ≥ and ≤ were set here for values at or beyond the usual limits of such assays; conditions: source organism: Orthohantavirus tulaense
HLA-A*23:01 [14] = assay: IEDB peptide-MHC binding, purified MHC/competitive/radioactivity; filed as Kd, often an IC50 or EC50 that approximates it; ≥ and ≤ were set here for values at or beyond the usual limits of such assays; conditions: source organism: Vaccinia virus WR
HLA-A*24:02 = assay: as above; conditions: source organism: Vaccinia virus WR
HLA-A*26:01 [15] = assay: IEDB peptide-MHC binding, purified MHC/direct/fluorescence; filed as Kd, often an IC50 or EC50 that approximates it; ≥ and ≤ were set here for values at or beyond the usual limits of such assays; conditions: source organism: Orthohantavirus andesense
HLA-A*68:02 [16] = assay: as above; conditions: source organism: Orthohantavirus andesense
HLA-A*23:01 [17] = assay: as above; conditions: source organism: Orthohantavirus andesense
[18] = source organism: Dengue virus 1 Brazil/97-11/1997
[19] = source organism: Dengue virus 2 Jamaica/1409/1983
[20] = source organism: Dengue virus 4 Dominica/814669/1981
[21] = source organism: Dengue virus 1 Singapore/S275/1990
[22] = source organism: Dengue virus 3 Martinique/1243/1999
[23] = source organism: Dengue virus 3 China/80-2/1980
[24] = source organism: Dengue virus 4 Philippines/H241/1956
[25] = source organism: Orthohantavirus andesense
[26] = source organism: Dengue virus 2 Peru/IQT2913/1996
[27] = source organism: Dengue virus 2 Thailand/NGS-C/1944
[28] = source organism: Orthohantavirus tulaense

Sequence KFGPYVSDY has a Kd (HLA-A*29:02 [1]; source organism: Yersinia pseudotuberculosis IP 31758) of 110 nM.

Work on EAVEDERFW yielded a Kd (HLA-B*53:01) of 80.8 nM and a Kd (HLA-B*57:01 [2]; [18]) of 84.5 nM.

YQLAVTIMA showed a Kd (HLA-A*02:06; [19]) of 19.8 nM, a Kd (HLA-A*02:01 [3]; [19]) of 42.3 nM and a Kd (HLA-A*02:17; [19]) of 10800 nM.

SMGLITIAV gave a Kd (HLA-A*02:01 [3]; [20]) of 9.99 nM and a Kd (HLA-A*02:17; [20]) of 776 nM.

LLMLLPTALA was tested, and the Kd (HLA-A*02:03 [4]; [18]) was 49.9 nM, the Kd (HLA-A*02:01 [3]; [21]) was 128 nM and the Kd (HLA-A*02:17; [21]) was 5210 nM.

FLAIPPTAGV showed a Kd (HLA-A*02:03 [4]; [22]) of 1.72 nM, a Kd (HLA-A*68:02 [5]; [22]) of 9.73 nM and a Kd (HLA-A*02:06; [22]) of 120 nM. For the same sequence, the Kd (HLA-A*02:17; [23]) was 11.9 nM.

NTSMAMTCIA showed a Kd (HLA-B*57:01 [2]; [24]) of 11700 nM.

GIMTIDLDPV was tested, and the Kd (HLA-A*02:03 [4]; [22]) was 25.2 nM, the Kd (HLA-A*02:06; [22]) was 83 nM and the Kd (HLA-A*02:01 [3]; [23]) was 11.7 nM. It also gave a Kd (HLA-A*02:17; [23]) of 2080 nM.

FIHFDHVPI showed a Kd (HLA-A*68:02 [6]) of 24.7 nM.

GTSHNILVEV was tested, and the Kd (HLA-A*68:02 [5]; [18]) was 15 nM and the Kd (HLA-B*57:01 [2]; [18]) was 758 nM.

LTMDREMLY gave a Kd (HLA-A*01:01; source organism: Bacillus cereus G9241) of 5.1 nM.

With PYKIPATVI the Kd (HLA-A*24:03 [7]; source organism: Escherichia coli 536) was 1060 nM.

In the case of YMGEDGCWYG, the Kd (HLA-A*02:01 [3]; [23]) is reported as 211 nM and the Kd (HLA-A*02:17; [23]) is reported as 6040 nM.

For VLNPYMPSV, the Kd (HLA-A*02:03 [4]; [19]) was 6.6 nM, the Kd (HLA-A*02:06; [19]) was 6.19 nM and the Kd (HLA-A*02:01 [3]; [19]) was 1.38 nM. For the same sequence, the Kd (HLA-A*02:17; [19]) was 8.12 nM.

YLALMATFKM was tested, and the Kd (HLA-A*02:01 [3]; [21]) was 12.8 nM and the Kd (HLA-A*02:17; [21]) was 182 nM.

RAWNSGYEW was tested, and the Kd (HLA-B*15:17) was 4.4 nM.

With DWMDRIEEF the Kd (HLA-A*02:19; source organism: Maporal virus) was ≥ 20000 nM, the Kd (HLA-A*03:01; source organism: Maporal virus) was ≥ 20000 nM and the Kd (HLA-A*02:03 [8]; source organism: Maporal virus) was ≥ 20000 nM. For the same sequence, the Kd (HLA-A*02:11; source organism: Maporal virus) was ≥ 20000 nM, the Kd (HLA-A*02:12; source organism: Maporal virus) was ≥ 20000 nM and the Kd (HLA-A*29:02 [9]; source organism: Maporal virus) was ≥ 20000 nM. For the same sequence, the Kd (HLA-A*02:16; source organism: Maporal virus) was ≥ 20000 nM, the Kd (HLA-A*26:01 [10]; [25]) was ≥ 20000 nM and the Kd (HLA-B*18:01; [25]) was ≥ 20000 nM. The Kd (HLA-A*69:01) was ≥ 20000 nM, the Kd (HLA-B*39:01; [25]) was ≥ 20000 nM and the Kd (HLA-B*51:01; [25]) was ≥ 20000 nM. The Kd (HLA-B*57:01 [11]; [25]) was ≥ 20000 nM, the Kd (HLA-A*24:03 [7]; [25]) was 156 nM and the Kd (HLA-B*46:01; [25]) was ≥ 20000 nM. The Kd (HLA-A*02:01 [12]) was ≥ 20000 nM and the Kd (HLA-B*27:03; [25]) was ≥ 20000 nM.

LMSGKDVFYL gave a Kd (HLA-A*02:01 [3]; [23]) of 4.76 nM and a Kd (HLA-A*02:17; [23]) of 8.67 nM.

With LMLVAHYAI the Kd (HLA-A*02:01 [3]; [21]) was 6.46 nM, the Kd (HLA-A*02:17; [21]) was 15.8 nM and the Kd (HLA-A*32:01) was 5.57 nM.

Sequence QFLAPDDRY has a Kd (HLA-A*29:02 [1]; source organism: Vibrio cholerae 2740-80) of 3.2 nM.

Work on APKDLLPWY yielded a Kd (HLA-A*29:02 [1]; source organism: Bacillus anthracis str. A0488) of 2540 nM.

With SWNNHSYLY the Kd (HLA-A*01:01; source organism: Mus musculus) was 4280 nM and the Kd (HLA-A*29:02 [1]; source organism: Mus musculus) was ≤ 0.1 nM.

For MIIMLIPTV, the Kd (HLA-A*02:03 [4]; [26]) was 4.4 nM, the Kd (HLA-A*02:06; [26]) was 7.5 nM and the Kd (HLA-A*02:01 [3]; [27]) was 3.89 nM. The Kd (HLA-A*02:17; [27]) was 0.634 nM.

In the case of QVSRPMFLY, the Kd (HLA-A*01:01; source organism: Influenza A virus (A/X-31(H3N2))) is reported as ≥ 20000 nM.

AWISSMLLY gave a Kd (HLA-A*29:02 [1]; source organism: Brucella suis ATCC 23445) of 0.2 nM.

In the case of AESICSYWL, the Kd (HLA-B*40:01) is reported as 0.3 nM, the Kd (HLA-A*02:19; [28]) is reported as ≥ 20000 nM and the Kd (HLA-A*03:01; [28]) is reported as ≥ 20000 nM. For the same sequence, the Kd (HLA-A*02:03 [8]; [28]) was ≥ 20000 nM, the Kd (HLA-A*02:11; [28]) was ≥ 20000 nM and the Kd (HLA-A*24:03 [13]; [28]) was ≥ 20000 nM. The Kd (HLA-A*02:12; [28]) was ≥ 20000 nM, the Kd (HLA-A*29:02 [9]; [28]) was ≥ 20000 nM and the Kd (HLA-A*02:16; [28]) was ≥ 20000 nM. The Kd (HLA-B*15:01) was ≥ 20000 nM, the Kd (HLA-A*26:01 [10]; [28]) was ≥ 20000 nM and the Kd (HLA-B*18:01; [28]) was ≥ 20000 nM. The Kd (HLA-B*39:01; [28]) was ≥ 20000 nM, the Kd (HLA-B*51:01; [28]) was ≥ 20000 nM and the Kd (HLA-B*57:01 [11]; [28]) was ≥ 20000 nM. The Kd (HLA-B*46:01; [28]) was ≥ 20000 nM and the Kd (HLA-B*27:03; [28]) was ≥ 20000 nM.

AVSMANIFRG showed a Kd (HLA-B*57:01 [2]; [19]) of 37.2 nM.

With YQGKTVWFV the Kd (HLA-A*02:06; [24]) was 12.3 nM, the Kd (HLA-A*02:01 [3]; [24]) was 9.87 nM and the Kd (HLA-A*02:17; [24]) was 201 nM.

Sequence LLATSIFKL has a Kd (HLA-A*02:03 [4]; [18]) of 14.3 nM, a Kd (HLA-A*02:01 [3]; [21]) of 5 nM and a Kd (HLA-A*02:17; [21]) of 22.7 nM.

LNRPDIGLY gave a Kd (HLA-A*29:02 [1]; source organism: Campylobacter jejuni) of 306 nM.

For VTDTNKFDNY, the Kd (HLA-A*01:01; source organism: Vaccinia virus WR) was 4.9 nM, the Kd (HLA-A*23:01 [14]) was ≥ 70000 nM and the Kd (HLA-A*24:02) was ≥ 70300 nM.

VMLLVLCAV gave a Kd (HLA-A*02:03 [4]; [22]) of 775 nM, a Kd (HLA-A*02:06; [22]) of 12.4 nM and a Kd (HLA-A*02:01 [3]; [23]) of 14.7 nM. For the same sequence, the Kd (HLA-A*02:17; [23]) was ≥ 28700 nM.

EVLKAMSLY was tested, and the Kd (HLA-A*26:01 [15]) was 3.9 nM, the Kd (HLA-A*02:19; [25]) was ≥ 20000 nM and the Kd (HLA-A*03:01; [25]) was ≥ 20000 nM. For the same sequence, the Kd (HLA-A*02:03 [8]; [25]) was ≥ 20000 nM, the Kd (HLA-A*68:02 [16]) was ≥ 20000 nM and the Kd (HLA-A*02:11; [25]) was ≥ 20000 nM. For the same sequence, the Kd (HLA-A*24:03 [13]; [25]) was ≥ 20000 nM, the Kd (HLA-A*02:12; [25]) was ≥ 20000 nM and the Kd (HLA-A*23:01 [17]) was ≥ 20000 nM. The Kd (HLA-B*39:01; [25]) was ≥ 20000 nM, the Kd (HLA-B*51:01; [25]) was ≥ 20000 nM and the Kd (HLA-B*57:01 [11]; [25]) was ≥ 20000 nM. The Kd (HLA-B*46:01; [25]) was ≥ 20000 nM, the Kd (HLA-A*02:01 [12]) was ≥ 20000 nM and the Kd (HLA-B*27:03; [25]) was ≥ 20000 nM.
